# Measured values published in the supplement of paper PMC10567573.
# B1: SMTNL2 (parent)
# chain: AFTMAENLANCERLIEVEDMMVMG
# Variants of: B1
# Assay: protein stability index of a GFP-peptide fusion (GPS, HEK-293T) (PSI 1-6); higher = more stable
# Conditions: c terminus: a fixed tail appended
# 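Note: lentivirally expressed fusions sorted by FACS into six bins by GFP to DsRed ratio, PSI derived from sequencing read proportions per bin multiplied by bin number.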
row,Variant,protein stability index
1,V17M,2.04
2,V17E,2.97
3,V17I,2.16
4,V17D,3.57
5,V17W,2.09
6,V17A,2.54
7,V17R,2.88
8,V17S,3.25
9,V17T,3.14
10,V17N,2.07
11,V17Y,2.47
12,V17L,3.28
13,V17C,1.98
14,V17P,4.04
15,V17H,2.35
16,V17Q,2.43
17,V17F,2.37
18,V17G,3.71
19,V17K,2.38
20,E12S,2.92
21,E12A,1.75
22,E12L,1.7
23,E12V,1.8
24,E12Q,2.41

row,Variant,protein stability index
1,E12N,2.93
2,E12R,1.71
3,E12D,3.1
4,E12C,1.55
5,E12I,2.73
6,E12Y,2.13
7,E12G,2.06
8,E12F,2.22
9,E12H,2.42
10,E12K,2.46
11,E12P,2.37
12,E12T,2.06
13,E12M,2.54
14,E12W,2.71
15,T3K,2.03
16,T3R,2.11
17,T3A,2.06
18,T3C,1.85
19,T3W,1.74
20,T3V,1.79
21,T3Q,2.13
22,T3Y,2.06
23,T3I,1.72
24,T3H,2.24

row,Variant,protein stability index
1,T3L,1.77
2,T3F,1.71
3,T3S,2.12
4,T3P,3.15
5,T3N,2.42
6,T3D,2.85
7,T3M,1.96
8,T3E,2.15
9,T3G,2.91
10,A9T,2.85
11,A9Q,2.91
12,A9P,3.84
13,A9Y,2
14,A9V,2.71
15,A9R,2.31
16,A9N,2.49
17,A9H,2.34
18,A9C,2.48
19,A9D,4.18
20,A9S,2.64
21,A9L,2.06
22,A9E,3.65
23,A9W,1.39
24,A9M,2.57

row,Variant,protein stability index
1,A9G,3.16
2,A9F,1.81
3,A9I,1.89
4,A9K,2.3
5,D19G,2.52
6,D19K,3.26
7,D19N,2.63
8,D19E,1.48
9,D19A,2.36
10,D19F,2.37
11,D19H,1.28
12,D19P,1.71
13,C11N,3.92
14,C11M,2.95
15,C11A,2.21
16,C11S,2.37
17,C11R,3.34
18,C11L,2.32
19,C11I,2.3
20,C11Y,2.51
21,C11D,4.07
22,C11T,2.21
23,C11F,2.56
24,C11K,3.59

row,Variant,protein stability index
1,C11E,3.9
2,C11H,3.63
3,C11V,2.75
4,C11G,3.23
5,C11W,2.21
6,C11Q,4.09
7,C11P,3.49
8,L8W,2.83
9,L8T,3.92
10,L8G,4.02
11,L8M,3.3
12,L8Q,4.06
13,L8V,3.14
14,L8I,2.79
15,L8E,4.29
16,L8D,4.36
17,L8Y,3.22
18,L8K,3.98
19,L8H,3.85
20,L8P,4.09
21,L8R,3.38
22,L8C,3.81
23,L8F,3.78
24,L8A,4.35

row,Variant,protein stability index
1,L8N,3.79
2,L8S,4.28
3,E6W,1.81
4,E6F,2.45
5,E6T,1.74
6,E6I,2.69
7,E6N,1.96
8,E6A,1.83
9,E6K,1.77
10,E6P,2.89
11,E6Q,1.3
12,E6S,1.65
13,E6G,2.15
14,E6M,4.33
15,E6C,2.27
16,E6H,2.09
17,E6D,2.8
18,E6Y,2.76
19,E6R,1.51
20,A5T,2.83
21,A5Q,2.05
22,A5I,3.19
23,A5H,2.01
24,A5V,2.03

row,Variant,protein stability index
1,A5Y,2.71
2,A5K,2.51
3,A5P,3.44
4,A5L,2.48
5,A5D,3.78
6,A5R,1.93
7,A5M,2.58
8,A5F,2.07
9,A5N,2.7
10,A5G,3.11
11,A5W,1.81
12,A5S,2.55
13,A5E,4.16
14,A5C,2.27
15,N10R,2.24
16,N10W,1.68
17,N10Q,3.5
18,N10M,2.1
19,N10P,3.37
20,N10K,2.48
21,N10Y,2.07
22,N10T,2.19
23,N10S,2.42
24,N10D,2.01

row,Variant,protein stability index
1,N10F,2.53
2,N10C,2
3,N10H,2.19
4,N10L,1.64
5,N10I,1.86
6,N10A,1.84
7,N10G,2.79
8,N10E,2.01
9,N10V,2
10,A1R,2.84
11,A1N,2.44
12,A1K,2.58
13,A1H,2.62
14,A1Q,3.22
15,A1I,1.76
16,A1M,1.61
17,A1S,2.46
18,A1Y,2.2
19,A1V,2.06
20,A1W,1.86
21,A1T,1.81
22,A1L,1.75
23,A1P,3.16
24,I15L,2.82

row,Variant,protein stability index
1,I15C,3.64
2,I15W,2.8
3,I15S,3.6
4,I15R,3.89
5,I15K,3.9
6,I15P,4.02
7,I15M,3
8,I15H,3.95
9,I15T,4.25
10,I15D,4.49
11,I15Q,4.4
12,I15E,4.99
13,I15Y,2.95
14,I15A,4
15,I15V,3.42
16,I15F,3.39
17,I15N,3.94
18,I15G,3.77
19,L14Y,2.13
20,L14C,3.33
21,L14E,3.64
22,L14M,2.34
23,L14H,3.86
24,L14D,4.59

row,Variant,protein stability index
1,L14S,3.08
2,L14G,3.96
3,L14T,3.5
4,L14P,3.69
5,L14Q,3.12
6,L14V,2.47
7,L14A,3.33
8,L14F,2.62
9,L14I,1.87
10,L14W,1.59
11,L14K,3.89
12,L14N,4.2
13,L14R,3.4
14,E18W,1.02
15,E18K,2.03
16,E18F,3.08
17,E18N,3.43
18,E18D,2.9
19,E18Q,2.18
20,E18P,3.06
21,E18I,1.58
22,E18L,2.22
23,E18M,1.97
24,E18H,2.85

row,Variant,protein stability index
1,E18S,2.01
2,E18R,2.67
3,E18G,2.52
4,E18Y,3.52
5,E16S,1.89
6,E16A,1.99
7,E16Y,1.94
8,E16C,1.9
9,E16N,2.17
10,E16P,2.79
11,E16D,3.2
12,E16F,2.14
13,E16R,1.83
14,E16Q,1.48
15,E16K,1.89
16,E16M,2.92
17,E16H,1.97
18,E16G,2.62
19,E16T,1.72
20,M4T,3.78
21,M4S,4.04
22,M4K,3.77
23,M4F,2.51
24,M4W,2.27

row,Variant,protein stability index
1,M4H,3.81
2,M4L,1.63
3,M4A,4.14
4,M4Y,3.13
5,M4R,3.22
6,M4Q,4.04
7,M4V,3.18
8,M4C,3.13
9,M4G,4.19
10,M4E,4.4
11,M4N,3.76
12,M4I,2.96
13,M4D,4.08
14,M4P,3.74
15,F2Y,2.22
16,F2T,3.88
17,F2A,3.7
18,F2G,4
19,F2E,4.17
20,F2K,3.5
21,F2I,2.27
22,F2W,2.07
23,F2H,3.48
24,F2M,2.08

row,Variant,protein stability index
1,F2C,3.14
2,F2S,3.49
3,F2L,2.27
4,F2R,2.4
5,F2P,4.28
6,F2V,3.18
7,F2Q,3.22
8,F2N,3.95
9,F2D,4.48
10,N7Y,1.62
11,N7P,3.41
12,N7V,2.66
13,N7A,2.83
14,N7D,3.11
15,N7W,1.49
16,N7R,2.25
17,N7S,2.45
18,N7E,2.21
19,N7T,2.62
20,N7F,1.78
21,N7G,2.59
22,N7C,3.03
23,N7M,1.67
24,N7H,1.92

row,Variant,protein stability index
1,N7I,2.05
2,N7L,2.48
3,N7Q,2.38
4,N7K,2.43
5,R13N,3.75
6,R13W,2.42
7,R13K,2.67
8,R13V,1.49
9,R13Y,2.17
10,R13C,2.08
11,R13H,3.03
12,R13D,4.24
13,R13S,3.15
14,R13G,3.46
15,R13M,2.56
16,R13T,2.99
17,R13L,3.24
18,R13Q,3.17
19,R13P,3.62
20,R13E,3.96
21,R13F,1.8
22,R13A,2.33
